Reference: US20150284453A1, “METHOD OF PROTECTING CARDIAC FUNCTION” (Declmmune Therapeutics, Inc., priority 2012, published 2015)

B1: murine 21G6 mAb: murine anti-N2 monoclonal antibody from hybridoma ATCC Accession Number PTA-9393 (antibody, V domains shown)
VH: QVQLQQPGAELVKPGASVKLSCKASGYTFTSYYMYWVKQRPGQGLEWIGGINPSNGGTNFNEKFKSKATLTVDKSSSTAYMQLSSLTSEDSAVYYCTRWGYDREWFAYWGQGTLVTVSA
VL: DIVMTQAAPSVPVTPGESVSISCRSSKSLLHSNGNTYLYWFLQRPGQSPQVLIYRMSNLASGVPDRFSGSGSGTAFTLRISRVEAEDVGVYYCMQHLEYPFTFGSGTKLEIKR

Key:
Assay type in all cases: in vivo
[1] = system: swine model of myocardial infarction; experiment: Myocardial infarct size by Evan's blue/TTC staining, swine model of myocardial infarction (1 h LAD occlusion, 5 d reperfusion); details: 5d post-reperfusion, TTC staining; i.v. N2 4.6 mg/kg 5 min or murine 21G6 mAb 2 mg/kg 30 min prior to reperfusion
Method: FIG. 2A to 2C are plots showing that N2 peptide and murine 21G6 mAb reduce infarct size in a swine model of myocardial infarction. Swine were subjected to 1 h LAD occlusion and 5 d reperfusion. Prior to reperfusion either saline, N2 (4.6 mg/kg), or murine 21G6 mAb (2 mg/kg) was injected i.v. into the swine. Following 5 d reperfusion, myocardial sections were stained with Evan's blue and TTC. (A) Myocardial infarct size expressed as a percentage of the left ventricle (LV). (B) Percentage of area at risk (AAR) to the LV. (C) Myocardial infarct size expressed as a percentage of the AAR. # represents p<0.05; ## represents p<0.01; ### represents p<0.001. Each symbol represents data from one animal. (Note: Due to poor perfusion with Evan's blue dye in one animal, n=5 in panels B and C). […] Saline-treated animals developed approximately a 20% infarct of the left ventricle as assessed by TTC staining at 5d post-reperfusion as predicted.

[2] = system: swine model of myocardial infarction; experiment: Serum cardiac troponin-T (cTnT) levels, swine model of myocardial infarction; details: N2 4.6 mg/kg or m21G6 2 mg/kg i.v. prior to reperfusion; for reduction of peak serum cTnT levels as compared to saline controls: 8-120 h post-reperfusion; for reduction of cTnT AUC values as compared to saline controls: five day reperfusion period
Method: FIGS. 3A and 3B are plots showing the effect of N2 peptide and murine 21G6 mAb (m21G6) on serum cardiac troponin-T (cTnT) levels. Swine were subjected to 1 h LAD occlusion and 5 d reperfusion. Prior to reperfusion either saline, N2 (4.6 mg/kg), or m21G6 (2 mg/kg) was injected i.v. into the swine. Serum samples were taken at several time points as described in text and analyzed for cTnT. (A) Peak cTnT levels. (B) cTnT levels over 5d reperfusion. # represents p<0.05; ## represents p<0.01. Each symbol represents data from one animal. Cardiac troponin-T (cTnT), a well-established marker for cardiac tissue injury, from 8-120 h post-reperfusion, was also analyzed. […] Saline-treated animals developed approximately a 20% infarct of the left ventricle as assessed by TTC staining at 5d post-reperfusion as predicted • Serial EKGs to document ST elevation • Angiogram q20 min to confirm complete occlusion • Lidocaine and defibrillation as needed • Administration of control vs. N2 peptide 5 minutes prior to reperfusion or mAb 21G6 30 minutes before reperfusion • Measure trend in cardiac enzymes (CK, cTnT) • Cardiectomy on Day 5 or Day 21 via cardioplegic arrest • LAD ligation at site of occlusion followed by injection of Evans blue dye via aortic cannula gives estimate of Area At Risk (AAR) • Incubation of transverse sections in TTC for 15 min at 37° C. • Calculate % infarction by computerized planimetry • 21G6 Alexa 568(1 mg/ml) infusion was initiated 2 min prior to reperfusion at ≈1 m1/min for ≈30 min via coronary catheter (results shown in FIG. 1 showing localization of the antibody to the injured left ventricle and not to the uninjured right ventricle) • Heart was perfused with cardioplegic solution 1 h post-ischemia, harvested, sectioned, and punch biopsies taken in the area at risk and in right ventricle • Sections were stained with anti-swine CD31 FITC (Serotec) 1/20 dilution • Using a fluoroscopically guided balloon catheter approach, the left anterior descending coronary artery (LAD) was occluded for 60 min at a defined point distal to the 2nd and 3rd diagonal branches. Saline-treated animals developed approximately a 20% infarct of the left ventricle as assessed by TTC staining at 5d post-reperfusion as predicted.

[3] = system: porcine model of myocardial infarction; experiment: Cardiac function (LVEF, fractional shortening) by echocardiography, porcine model of myocardial infarction; details: for increase in EF compared to saline controls at the same time point: 21 days post-reperfusion, 3D TTE, n of 3 per group; for ejection fraction (EF) 21 d post-reperfusion: Quinones method; for ejection fraction (EF) 21 d post-reperfusion / LVEF at baseline: n=3/group; for recovery of cardiac function by fractional shortening (FS) compared to baseline: 21d reperfusion period; for LVEF at baseline: baseline (prior to occlusion procedure)
Excerpt: FIG. 4A to 4C are graphs showing measurements of cardiac function by echocardiography. (A) Non-corrected % LVEF as measured by 2D TTE at 21d post-reperfusion compared to baseline using Quinones method (described below in the Examples section). (B) % LVEF as measured by 3D TTE at 21d post-reperfusion. (C) Fractional shortening as measured by 2D TTE at 21d post-reperfusion compared to baseline. # represents a p<0.05. n=3/group.
To determine the effect of N2 peptide and the 21G6 antibody treatment on cardiac function, echocardiography was employed. Echocardiography is widely accepted for evaluation of cardiac function and is utilized in emergency and operating rooms as well as intensive care departments in most hospitals. Ventricular function as assessed by echocardiography is accompanied by low intra-observer and inter-observer variability and assessment of left ventricular ejection fraction remains the standard of care in clinical practice. In addition, fractional shortening (FS), another measure of left ventricular function, was also calculated based on two-dimensional (2D) measurements at all time points measured at mid-ventricle and is defined as the difference between end-diastolic and end-systolic dimensions divided by end-diastolic dimension.
For animals in which functional data was generated (N2: n of 3, murine 21G6 mAb: n of 3, Saline: n of 3), cardiac imaging was performed via transthoracic echocardiography (TTE) at baseline (prior to occlusion procedure), and then up to 21d following reperfusion. For baseline TTE images were obtained using a high-frequency 2D probe and a Philips iE33 xMATRIX scanner (Andover, Mass.). Prior to sacrifice at 21 days, both 2D and 3D epicardial echocardiography images were obtained after median sternotomy was performed. 3D volumetric data sets were ECG-gated from 4-7 consecutive heartbeats. Additionally, 3D left ventricular volumes and ejection fractions were computed from the epicardial 3D datasets.
Prior to the occlusion procedure, a baseline TTE image was recorded. Afterwards, TTE was performed. Animals were treated in an identical manner as in the 5 day study for the catheterization procedure except that animals were maintained for an additional 16 days. The echocardiographer was blinded to the treatment schedule.
At baseline, saline, N2- and murine 21G6 mAb -treated animals had LVEFs of 53%, 52.6%, and 51%, respectively.
• Intravenous amiodarone infusion (1 mg/min) • Systemic heparinization (˜150 units/kg) • Percutaneously access of LAD via right (R) femoral artery • Occlusion mid-LAD with balloon catheter for 60 min as follows: Using a fluoroscopically guided balloon catheter approach, the left anterior descending coronary artery (LAD) was occluded for 60 min at a defined point distal to the 2nd and 3rd diagonal branches. […]

Molecule | reduction of infarct size as a percentage of the area at risk (AAR) [1] [%] | reduction of peak serum cTnT levels as compared to saline controls [2] | reduction of cTnT AUC values as compared to saline controls [2] | increase in EF compared to saline controls at the same time point [3] [%] | ejection fraction (EF) 21 d post-reperfusion ([3]; 2D TTE) [%] | recovery of cardiac function by fractional shortening (FS) compared to baseline ([3]; 2D TTE) [%] | LVEF at baseline ([3]; 2D TTE) [%] | recovery of cardiac function (LVEF at 21 d relative to baseline) ([3]; 21 d post-reperfusion vs baseline, 2D TTE, saline-treated 74.7%) [%]
LMKNMDPLNDNV [N2 peptide] | 31 | no effect | no effect | 29 | 52.0 | 98.8 | 52.6 | –
B1 | 49 | 60% | 47% | 21 | 50.4 | 99.4 | 51 | 98.8
